Biological target: human FPR2 (transcript variant 1; Origene) fused with mGFP (human) (UniProt P25090)
Assay: cell-based or functional assay

Inhibition (%) of forskolin-mediated cAMP production: 46%
Substance: LL37 peptide (from UniProt P49913 134-170)

From patent publication US20220372484A1
